Data taken from US20240317847A1 (Bayer, published 2024).

T1: human IL-11 (human, UniProt P20809 22-199)
T1 construct: Invigate recombinant protein; biotinylated when immobilized in the Di-complex ELISA; also called hIL11; hIL-11
T1 sequence: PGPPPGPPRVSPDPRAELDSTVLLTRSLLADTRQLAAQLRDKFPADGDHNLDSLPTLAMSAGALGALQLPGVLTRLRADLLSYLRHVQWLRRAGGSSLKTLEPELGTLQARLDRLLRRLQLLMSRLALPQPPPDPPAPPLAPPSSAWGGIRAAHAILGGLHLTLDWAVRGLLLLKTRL

T2: murine IL-11 (mouse, UniProt P47873 22-199)
T2 construct: Invigate recombinant protein; biotinylated when immobilized in the Di-complex ELISA; also called mIL11; mIL-11
T2 sequence: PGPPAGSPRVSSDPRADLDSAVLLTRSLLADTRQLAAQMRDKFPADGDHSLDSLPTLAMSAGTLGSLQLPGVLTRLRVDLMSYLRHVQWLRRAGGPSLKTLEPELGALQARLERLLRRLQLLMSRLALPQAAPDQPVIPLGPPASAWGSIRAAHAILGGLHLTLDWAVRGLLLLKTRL

T3: human IL2Ra (human, UniProt P01589 22-240, limits assumed)
T3 construct: coated on the ELISA plate; also called IL-2 receptor alpha
T3 sequence (looked up): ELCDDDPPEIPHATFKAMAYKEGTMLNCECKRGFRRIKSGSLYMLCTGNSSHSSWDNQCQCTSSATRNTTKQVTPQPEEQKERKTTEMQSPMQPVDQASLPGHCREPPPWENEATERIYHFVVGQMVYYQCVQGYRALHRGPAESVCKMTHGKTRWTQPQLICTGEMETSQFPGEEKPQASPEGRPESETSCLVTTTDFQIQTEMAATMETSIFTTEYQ


Key:
human IL-11 = biological target: T1, human IL-11; assay: Tri-complex ELISA, hIL-11 + mIL-11Ra-Fc + hgp130-Fc, inhibition of complex formation
Experimental: In the Tri-complex ELISA format IL-11 antibodies are tested for their ability to inhibit the formation of a complex consisting of murine or human gp130-Fc fusion protein, with murine or human IL-11, and a murine IL11RA-Fc fusion protein. The assay format was adapted according to FIG. 18 (a, b), depending on whether murine or human IL-11 IgG antibodies were tested.
(§1) IgG converted antibodies were subjected to the experimental assay procedure described in Example 19 and IC50 [M], respectively efficacy (%) were calculated accordingly.

murine IL-11 = biological target: T2, murine IL-11; assay: Tri-complex ELISA, mIL-11 + mIL-11Ra-Fc + mgp130-Fc, inhibition of complex formation
Experimental: In a first step, 25 μl of goat anti human IgG (Sigma, #12136), diluted 1:1000 in coating buffer (Candor, #121125) was coated on the plate at 4° C. overnight. Next day, the plate was washed one time with 50 μl PBST and then blocked with 50 μl SmartBlock (Candor, #113125) for one hour at room temperature (RT). […] After three additional washes of the coated and blocked microtiter plate with PBS-T, 25 μl of each mixture were added and the assay plate was incubated for one hour at room temperature. After three additional washes, anti-mouse-gp130 biotinylated antibody (R&D, #BAF468) or anti-human gp130 biotinylated antibody (R&D, #BAF228), both 1:1000 in 10% SmartBlock PBS-T, was added and incubated for 1 hour at RT. After three additional washes, a Streptavidin-Peroxidase conjugate (Sigma, #S5512) 1:1000 in SmartBlock PBS-T was added and incubated for one hour at room temperature. After a final three washes, AmplexRed (Fisher Scientific, A12222), 1/1000 in PBS, 0,003% H₂O₂, was added as substrate and incubated for 15 min at RT in the dark. Then, the fluorescence was measured with a plate reader at 535/595 nm. Signals from dose responses were used to calculate IC50 values using GraphPad Prism software. Efficacy was calculated as [(signal measured at lowest antibody concentration−signal measured at the highest antibody concentration)×100] divided by (signal measured at lowest antibody concentration−signal measured in the absence of antibody at an IL11 concentration of 8.2E-11 [M]).
as §1

human IL2Ra = biological target: T3, human IL2Ra; assay: ELISA on coated IL2Ra, signal ratio to isotype control TPP-10159 at 3.3E-7 M antibody
Experimental: IL2RA (Peprotech, Germany, #200-02RC) was coated at 1 or 0 μg/ml (buffer only control) in 30 μl coating buffer (Candor, #113500) per well on a 384 well microtiter plate (Maxisorb, Nunc, #460518) over night at 4-8° C. After two washes with 50 μl/well washing buffer (PBS+0.05% Tween, pH 7.4), the plates were incubated for two hours at room temperature with 50 μl/well SmartBlock (Candor, #113500). After blocking, the plates were washed three times with washing buffer. Then, a dilution series of the respective antibody (1E-7 [M] down to 2E-13 [M]) in PBS+0.05% Tween, 10% SmartBlock were added in 30 μl to the microtiter plate and incubated for 90 min at room temperature. After three additional washes, 30 μl anti mouse IgG HRP-conjugated antibody (Biotechne, HAF007), diluted 1:1000 in PBS+0.05% Tween (pH 7.4), were added per well and incubated for one hour. After three additional washes, a mixture of Amplex red (Invitrogen, #12222, 10 mM stock solution in DMSO) 1:1000 diluted in PBS and H2O2 (30%, Merck, #107209)) diluted 1:10000 in PBS were added as substrate with 30 μl per well and incubated for 20 min in the dark. Relative fluorescence was measured with a microtiter plate reader at 535/590 nm.
IgG converted antibodies TPP-were tested for binding to IL2Ra as described in Example 20. The ratios of the signals obtained at an antibody concentration of 3.3E-7 [M] for IgG converted antibody versus the isotype control TPP-10159 were calculated and are shown in Table E22.

Binder	Efficacy (%) (human IL-11)	IC50 (human IL-11)	Efficacy (%) (murine IL-11)	IC50 (murine IL-11)	Antibody/Isotype Control Ratio of IL-2Ra Binding Signals (human IL2Ra)
TPP-29523 (antibody, mouse IgG1, mIgG1, Lambda) heavy: QVQLVESGGGVVQPGRSLRLSCAASGFTFSHYDMHWVRQAPGKGLEWVAVISYEGSVKFYADSVKGRFTISRDNSKNTLYLQMNSLRAEDTAVYYCARTPGFHFDYWGQGTLVTVSSAKTTPPSVYPLAPGSAAQTNSMVTLGCLVKGYFPEPVTVTWNSGSLSSGVHTFPAVLQSDLYTLSSSVTVPSSTWPSETVTCNVAHPASSTKVDKKIVPRDCGCKPCICTVPEVSSVFIFPPKPKDVLTITLTPKVTCVVVDISKDDPEVQFSWFVDDVEVHTAQTQPREEQFNSTFRSVSELPIMHQDWLNGKEFKCRVNSAAFPAPIEKTISKTKGRPKAPQVYTIPPPKEQMAKDKVSLTCMITDFFPEDITVEWQWNGQPAENYKNTQPIMDTDGSYFVYSKLNVQKSNWEAGNTFTCSVLHEGLHNHHTEKSLSHSPGK light: QSVLTQPPSASGTPGQRVTISCSGSSSNIGSNYVNWYQQLPGTAPKLLIYYDDLRPSGVPDRFSGSKSGTSASLAISGLRSEDEADYYCSAWDDSLSGVVFGGGTKLTVLGQPKSSPSVTLFPPSSEELETNKATLVCTITDFYPGVVTVDWKVDGTPVTQGMETTQPSKQSNNKYMASSYLTLTARAWERHSSYSCQVTHEGHTVEKSLSRADCS	84.3%	2.1 nM	84.3%	0.12 nM	1.2 ratio
TPP-29522 (antibody, mouse IgG1, mIgG1, Lambda) heavy: QVQLVESGGGVVQPGRSLRLSCAASGFTFSHYDMHWVRQAPGKGLEWVAVISYEGSNKFYADSVKGRFTISRDNSKNTLYLQMNSLRAEDTAVYYCARTPGFHFDYWGQGTLVTVSSAKTTPPSVYPLAPGSAAQTNSMVTLGCLVKGYFPEPVTVTWNSGSLSSGVHTFPAVLQSDLYTLSSSVTVPSSTWPSETVTCNVAHPASSTKVDKKIVPRDCGCKPCICTVPEVSSVFIFPPKPKDVLTITLTPKVTCVVVDISKDDPEVQFSWFVDDVEVHTAQTQPREEQFNSTFRSVSELPIMHQDWLNGKEFKCRVNSAAFPAPIEKTISKTKGRPKAPQVYTIPPPKEQMAKDKVSLTCMITDFFPEDITVEWQWNGQPAENYKNTQPIMDTDGSYFVYSKLNVQKSNWEAGNTFTCSVLHEGLHNHHTEKSLSHSPGK light: QSVLTQPPSASGTPGQRVTISCSGSSSNIGSNYVNWYQQLPGTAPKLLIYYDDLRPSGVPDRFSGSKSGTSASLAISGLRSEDEADYYCSAWDDSLSGVVFGGGTKLTVLGQPKSSPSVTLFPPSSEELETNKATLVCTITDFYPGVVTVDWKVDGTPVTQGMETTQPSKQSNNKYMASSYLTLTARAWERHSSYSCQVTHEGHTVEKSLSRADCS	85.4%	2 nM	85.4%	0.11 nM	0.7 ratio

Stronger by IC50 (human IL-11), values ahead:

Efficacy (%) (human IL-11)	IC50 (human IL-11)	Efficacy (%) (murine IL-11)	IC50 (murine IL-11)	Antibody/Isotype Control Ratio of IL-2Ra Binding Signals (human IL2Ra)	Binder
85.7%	1.8 nM	85.7%	0.092 nM	0.7 ratio	TPP-29521 (antibody, mouse IgG1, mIgG1, Lambda) heavy: QVQLVESGGGVVQPGRSLRLSCAASGFTFSHYDMHWVRQAPGKGLEWVAVISYEGSNKFYADSVKGRFTISRDNSKNTLYLQMNSLRAEDTAVYYCARTPGFHFDYWGQGTLVTVSSAKTTPPSVYPLAPGSAAQTNSMVTLGCLVKGYFPEPVTVTWNSGSLSSGVHTFPAVLQSDLYTLSSSVTVPSSTWPSETVTCNVAHPASSTKVDKKIVPRDCGCKPCICTVPEVSSVFIFPPKPKDVLTITLTPKVTCVVVDISKDDPEVQFSWFVDDVEVHTAQTQPREEQFNSTFRSVSELPIMHQDWLNGKEFKCRVNSAAFPAPIEKTISKTKGRPKAPQVYTIPPPKEQMAKDKVSLTCMITDFFPEDITVEWQWNGQPAENYKNTQPIMDTDGSYFVYSKLNVQKSNWEAGNTFTCSVLHEGLHNHHTEKSLSHSPGK light: QSVLTQPPSASGTPGQRVTISCSGSSSNIGSNYVSWYQQLPGTAPKLLIYYDDLRPSGVPDRFSGSKSGTSASLAISGLRSEDEADYYCSAWDDSLSGVVFGGGTKLTVLGQPKSSPSVTLFPPSSEELETNKATLVCTITDFYPGVVTVDWKVDGTPVTQGMETTQPSKQSNNKYMASSYLTLTARAWERHSSYSCQVTHEGHTVEKSLSRADCS
81.8%	1.3 nM	81.8%	0.13 nM	0.6 ratio	TPP-29520 (antibody, mouse IgG1, mIgG1, Lambda) heavy: QVQLVESGGGVVQPGRSLRLSCAASGFTFSHYDMHWVRQAPGKGLEWVAVISYSGSVKFYADSVKGRFTISRDNSKNTLYLQMNSLRAEDTAVYYCARTPGSHFDYWGQGTLVTVSSAKTTPPSVYPLAPGSAAQTNSMVTLGCLVKGYFPEPVTVTWNSGSLSSGVHTFPAVLQSDLYTLSSSVTVPSSTWPSETVTCNVAHPASSTKVDKKIVPRDCGCKPCICTVPEVSSVFIFPPKPKDVLTITLTPKVTCVVVDISKDDPEVQFSWFVDDVEVHTAQTQPREEQFNSTFRSVSELPIMHQDWLNGKEFKCRVNSAAFPAPIEKTISKTKGRPKAPQVYTIPPPKEQMAKDKVSLTCMITDFFPEDITVEWQWNGQPAENYKNTQPIMDTDGSYFVYSKLNVQKSNWEAGNTFTCSVLHEGLHNHHTEKSLSHSPGK light: QSVLTQPPSASGTPGQRVTISCSGSSSNIGSNYVNWYQQLPGTAPKLLIYYDDLRPSGVPDRFSGSKSGTSASLAISGLRSEDEADYYCSAWDDSLSGVVFGGGTKLTVLGQPKSSPSVTLFPPSSEELETNKATLVCTITDFYPGVVTVDWKVDGTPVTQGMETTQPSKQSNNKYMASSYLTLTARAWERHSSYSCQVTHEGHTVEKSLSRADCS
